# Measured values from paper PMC5527654.
# Molecular target: T1, 6xHis-PA3225 (Pseudomonas aeruginosa UCBPP-PA14) (UniProt A0A0H2ZDR5)
# T1 sequence: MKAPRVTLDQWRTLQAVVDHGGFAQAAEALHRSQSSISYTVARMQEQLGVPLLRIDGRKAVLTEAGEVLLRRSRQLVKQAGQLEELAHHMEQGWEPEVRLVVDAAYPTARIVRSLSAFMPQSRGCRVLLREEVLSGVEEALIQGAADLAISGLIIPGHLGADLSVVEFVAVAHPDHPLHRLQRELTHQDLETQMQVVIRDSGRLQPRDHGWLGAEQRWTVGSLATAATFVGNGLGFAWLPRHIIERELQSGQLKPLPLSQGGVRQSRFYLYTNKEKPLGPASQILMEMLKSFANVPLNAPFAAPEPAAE
# Assay: EMSA
row,Sequence,binding
1,ATGGCTGGCGTTCGTTGCATAGCGTTGTCCTCATGAGCGAAAGCGGCCGATGCAGCGTGAAGGCGCTGCACCGGCTCGAAGAAGGCAGGCAAAATACTTACATTCATAGGTGTTTGTAAACGTCCGAAAGC (double strand) [Cy5-PmexAB-oprM probe 4],no binding
2,ATGTGGTTGATCCAGTCAACTATTTTGCTTATTTTAGTTGACCTTATCAACCTTGTTTCAGGTTCTGAATATGGGCCATGGCGCCGGGTGGATAACCGGCCATCGAGCTAAAACGTTTCAGGTGTTTTCACGCGAGGCTTTCGGACGTTTACA (double strand) [Cy5-PmexAB-oprM probe 3],binds
3,TAGTTGACTGGATCAACCACATTTACATTAGGTTTACTCGGCCAAACCAATGAACTACCCCGTGAATCCCGACCTGATGCCCGCGCTGATGGCGGTCTTCCAGCATGTACGGACGCGCATCCAGAGCGAGCTCGATT (double strand) [Cy5-PmexAB-oprM probe 2],no binding

# Molecular target: T1, 6xHis-PA3225 (Pseudomonas aeruginosa UCBPP-PA14)
# Assay: competition
row,Sequence,binding
1,ATGGCTGGCGTTCGTTGCATAGCGTTGTCCTCATGAGCGAAAGCGGCCGATGCAGCGTGAAGGCGCTGCACCGGCTCGAAGAAGGCAGGCAAAATACTTACATTCATAGGTGTTTGTAAACGTCCGAAAGC (double strand) [PmexAB-oprM probe 4 unlabeled],no binding
2,ATGTGGTTGATCCAGTCAACTATTTTGCTTATTTTAGTTGACCTTATCAACCTTGTTTCAGGTTCTGAATATGGGCCATGGCGCCGGGTGGATAACCGGCCATCGAGCTAAAACGTTTCAGGTGTTTTCACGCGAGGCTTTCGGACGTTTACA (double strand) [PmexAB-oprM probe 3 unlabeled],binds
3,TAGTTGACTGGATCAACCACATTTACATTAGGTTTACTCGGCCAAACCAATGAACTACCCCGTGAATCCCGACCTGATGCCCGCGCTGATGGCGGTCTTCCAGCATGTACGGACGCGCATCCAGAGCGAGCTCGATT (double strand) [PmexAB-oprM probe 2 unlabeled],no binding
